Laboratory results published in US20220125891A1 (OSAKA UNIVERSITY, published 2022).
Where a chain is given by its changes, count along the chain named. Positions of bridges follow the written chain, without caps; N, C: chain ends. Non-standard residues stand in square brackets, D forms with d. No end group written: not given here. NMeA = CN[C@@H](C)C(=O)O; dNMeA = CN[C@H](C)C(=O)O

T1: full-length human Regnase-1 with a FLAG tag on the N-terminal side and a biotin ligase BirA recognition … (human, UniProt Q5D1E8 1-599, biotinylated where required ; Biotinylated at the BirA recognition sequence where required. That sequence is not in the letters.)
T1 sequence: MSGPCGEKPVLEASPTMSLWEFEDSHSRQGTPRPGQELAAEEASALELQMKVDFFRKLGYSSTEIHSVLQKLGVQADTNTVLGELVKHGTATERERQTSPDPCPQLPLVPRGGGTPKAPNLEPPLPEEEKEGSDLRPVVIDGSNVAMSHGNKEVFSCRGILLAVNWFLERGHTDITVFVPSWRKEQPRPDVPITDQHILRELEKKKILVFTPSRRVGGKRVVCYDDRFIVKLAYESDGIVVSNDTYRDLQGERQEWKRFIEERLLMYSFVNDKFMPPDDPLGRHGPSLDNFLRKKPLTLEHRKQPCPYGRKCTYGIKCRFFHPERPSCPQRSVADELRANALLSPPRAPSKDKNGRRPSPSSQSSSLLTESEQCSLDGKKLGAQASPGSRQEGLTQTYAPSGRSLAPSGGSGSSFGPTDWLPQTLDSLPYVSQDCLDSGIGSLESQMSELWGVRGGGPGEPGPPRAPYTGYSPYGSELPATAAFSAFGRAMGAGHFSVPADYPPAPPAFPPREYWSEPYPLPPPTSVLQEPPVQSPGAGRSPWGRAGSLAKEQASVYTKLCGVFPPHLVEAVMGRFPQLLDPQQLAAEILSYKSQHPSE

T2: Reg1_301-599 (human Regnase-1 amino acids 301 to 599, FLAG tag on the N-terminal side, BirA recognition … (human))
T2 sequence (Q5D1E8 301-599, looked up): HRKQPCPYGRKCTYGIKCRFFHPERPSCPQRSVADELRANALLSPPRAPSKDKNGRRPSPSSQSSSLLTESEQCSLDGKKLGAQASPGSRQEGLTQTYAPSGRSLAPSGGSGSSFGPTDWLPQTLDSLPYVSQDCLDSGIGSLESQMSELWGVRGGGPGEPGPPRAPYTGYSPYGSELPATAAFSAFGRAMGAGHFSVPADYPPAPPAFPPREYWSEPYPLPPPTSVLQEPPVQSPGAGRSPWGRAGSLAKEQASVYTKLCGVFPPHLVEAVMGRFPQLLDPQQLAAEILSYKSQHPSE

T3: Peptide 1 (CLDSGIGSLESQMSELWGVRGG), biotin-conjugated (human, biotin-conjugated)
T3 construct: also called human Regnase-1 peptide
T3 peptide: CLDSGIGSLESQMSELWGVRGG

B1: REB0014 (antibody, V domains shown)
VH: QSLEESGGGLVKPGGTLTLTCKASGIDFSSYYYMCWVRQAPGKGLEWIACIYSGDGSSYYVSWANGRFTISKTSSATVTLQMTSLTAADTATYFCARDLGNLWGPGTLVTVSS
VL: QVLTQTPASVSAAVGGTVTINCQASQSVYKNSGLSWFQQKPGQSPKRLIYSASTLDSGVPSRFKGSGSGTQFTLTISDVQCDDAATYYCLGIYVCSSVDCGAFGGGTEVVVKG
notes: Rabbit antibody gene expressed in HEK293 cells, purified by Protein A; also called anti-Regnase-1 antibody; anti-non-phosphorylated Regnase-1 peptide antibody
B2: REB0007 (antibody, V domains shown)
VH: QEQLEESGGDLVKPEGSLTLTCTASGFSFNSRYWICWVRQAPGKGLEWIGCIVSGDSNTYYASWAKGRFTISKTSSTTVTLQMTSLTAADTATYFCARWYTSSRPGLWGPGTLVTVSS
VL: DVVMTQTPASVSEPVGGTVTIKCQASQSISSYLSWYQQKPGQPPKLLIYSATNLASGVSSRFKGSRFGTEFTLTISDLECDDAATYYCQCSYYVSGFAFGGGTEVVVKG
notes: as for B1
B3: REB0022 (antibody, V domains shown)
VH: QEQLEESGGDLVKPEGSLTLTCTASGGSFSSRYWMCWVRQAPGKGLEWIACIVIGDRNNYYASWAKGRFTISKTSSTTVTLQMTSLTAADTATYFCARWHSSTAPSLWGPGTLVTVSS
VL: B2 VL with K22N, S50K, T52S, N53T, R66G, F67S, D81A, A98V
notes: as for B1
B4: REA0023 (antibody, V domains shown)
VH: QSLEESGGDLVKPGASLTLTCTDAGFSFSGVYWMHWVRQAPGKGLEWIACINAGSSGSTYYASWAKGRFTISKPSSTTVTLQMTSLTVADTATYFCARSFTLWGPGTLVTVSS
VL: AVVTQTPSSVSAAVGGTVTIKCQSSQSVGNNNYLAWFQQKPGQPPKLLIYSASTLASGVPSRFSGSGSGTQFTLTISGVQCDDAATYYCLGGYDGDGEAFYVFGGGTEVVVKG
notes: as for B1
B5: REA0027 (antibody, V domains shown)
VH: B4 VH with D23A, A24S, S27G, G30S, V31S, G57T, S58K, R98W, T101N
VL: B4 VL with Y33W
notes: as for B1

Biological target: T1, full-length human Regnase-1 with a FLAG …
Experiment: cell-based or functional assay

Row | Binder | IC50, phosphorylation by IKKβ [µM] | IC50, phosphorylation by TBK1 [µM]
1 | [NMeA]YIWDFFGDLD (lactam N-11) [PP4] | 19.5 | 61.9
2 | [dNMeA]PNSSWFKIWD (lactam N-11) [PP6] | 17 | 13.1
3 | [NMeA]HSNAWYNIWD (lactam N-11) [PP5] | 23.6 | 24.2

Biological target: T4, ΔCTD_Reg1 (human Regnase-1 amino acids 1 to 546, FLAG tag on the N-terminal side, BirA recognition sequence … (human))
Experiment: cell-based or functional assay

Row | Binder | IC50, phosphorylation by IKKβ [µM] | IC50, phosphorylation by TBK1 [µM]
4 | [NMeA]YIWDFFGDLD (lactam N-11) [PP4] | 8.3 | 44.9
5 | [dNMeA]PNSSWFKIWD (lactam N-11) [PP6] | 20.3 | 14.5
6 | [NMeA]HSNAWYNIWD (lactam N-11) [PP5] | 20.4 | 19.1

Biological target: T1, full-length human Regnase-1 with a FLAG …
Experiment: cell-based or functional assay
Remark: another data set of the same source

Row | Binder | IC50, phosphorylation by TBK1 [µM]
7 | [NMeA]YIWDFFGDLD (lactam N-11) [PP4] | 61.9
8 | [dNMeA]PNSSWFKIWD (lactam N-11) [PP6] | 13.1
9 | [NMeA]HSNAWYNIWD (lactam N-11) [PP5] | 24.2

Biological target: T4, ΔCTD_Reg1 (human Regnase-1 amino acids …)
Experiment: cell-based or functional assay
Remark: another data set of the same source

Row | Binder | IC50, phosphorylation by TBK1 [µM]
10 | [NMeA]YIWDFFGDLD (lactam N-11) [PP4] | 44.9
11 | [dNMeA]PNSSWFKIWD (lactam N-11) [PP6] | 14.5
12 | [NMeA]HSNAWYNIWD (lactam N-11) [PP5] | 19.1

Biological target: T2, Reg1_301-599 (human Regnase-1 amino …)
Experiment: cell-based or functional assay

Row | Binder | IC50, phosphorylation by TBK1 [µM]
13 | [NMeA]YIWDFFGDLD (lactam N-11) [PP4] | 35.9
14 | [dNMeA]PNSSWFKIWD (lactam N-11) [PP6] | 16.8
15 | [NMeA]HSNAWYNIWD (lactam N-11) [PP5] | 40.4

Biological target: T1, full-length human Regnase-1 with a FLAG …
Experiment: cell-based or functional assay
Remark: another data set of the same source

Row | Binder | IC50, phosphorylation by IKKβ [µM]
16 | [NMeA]YIWDFFGDLD (lactam N-11) [PP4] | 19.5
17 | [dNMeA]PNSSWFKIWD (lactam N-11) [PP6] | 17
18 | [NMeA]HSNAWYNIWD (lactam N-11) [PP5] | 23.6

Biological target: T4, ΔCTD_Reg1 (human Regnase-1 amino acids …)
Experiment: cell-based or functional assay
Remark: another data set of the same source

Row | Binder | IC50, phosphorylation by IKKβ [µM]
19 | [NMeA]YIWDFFGDLD (lactam N-11) [PP4] | 8.3
20 | [dNMeA]PNSSWFKIWD (lactam N-11) [PP6] | 20.3
21 | [NMeA]HSNAWYNIWD (lactam N-11) [PP5] | 20.4

Biological target: T2, Reg1_301-599 (human Regnase-1 amino …)
Experiment: cell-based or functional assay
Remark: another data set of the same source

Row | Binder | IC50, phosphorylation by IKKβ [µM]
22 | [NMeA]YIWDFFGDLD (lactam N-11) [PP4] | 12.8
23 | [dNMeA]PNSSWFKIWD (lactam N-11) [PP6] | 17.5
24 | [NMeA]HSNAWYNIWD (lactam N-11) [PP5] | 31.3

Biological target: T1, full-length human Regnase-1 with a FLAG …
Experiment: AlphaScreen, blocks IKKβ binding to FL_Reg1

Row | Binder | IC50 [µM]
25 | [NMeA]YIWDFFGDLD (lactam N-11) [PP4] | 47.7
26 | [dNMeA]PNSSWFKIWD (lactam N-11) [PP6] | 42.1
27 | [NMeA]HSNAWYNIWD (lactam N-11) [PP5] | 24

Biological target: T1, full-length human Regnase-1 with a FLAG …
Experiment: AlphaScreen, blocks TBK1 binding to FL_Reg1

Row | Binder | IC50 [µM]
28 | [NMeA]YIWDFFGDLD (lactam N-11) [PP4] | 24.4
29 | [dNMeA]PNSSWFKIWD (lactam N-11) [PP6] | 19.2
30 | [NMeA]HSNAWYNIWD (lactam N-11) [PP5] | 11.5

Biological target: T1, full-length human Regnase-1 with a FLAG …
Experiment: AlphaScreen, blocks TBK1 binding to FL_Reg1
Remark: another data set of the same source

Row | Binder | IC50 [µM]
31 | [NMeA]YIWDFFGDLD (lactam N-11) [PP4] | 24.4
32 | [dNMeA]PNSSWFKIWD (lactam N-11) [PP6] | 19.2
33 | [NMeA]HSNAWYNIWD (lactam N-11) [PP5] | 11.5

Biological target: T1, full-length human Regnase-1 with a FLAG …
Experiment: AlphaScreen, blocks IKKβ binding to FL_Reg1
Remark: another data set of the same source

Row | Binder | IC50 [µM]
34 | [NMeA]YIWDFFGDLD (lactam N-11) [PP4] | 47.7
35 | [dNMeA]PNSSWFKIWD (lactam N-11) [PP6] | 42.1
36 | [NMeA]HSNAWYNIWD (lactam N-11) [PP5] | 24

Biological target: T1, full-length human Regnase-1 with a FLAG …
Experiment: affinity selection-MS (SEC, LC/MS), 1 µM each

Row | Binder | AS-MS ratio(%)
37 | [NMeA]YIWDFFGDLD (lactam N-11) [PP4] | 37.5
38 | [dNMeA]PNSSWFKIWD (lactam N-11) [PP6] | 6.4
39 | [NMeA]HSNAWYNIWD (lactam N-11) [PP5] | 20.8

Biological target: T1, full-length human Regnase-1 with a FLAG …
Experiment: flow cytometry of antigen-coated streptavidin beads

Row | Binder | binding result
40 | B1 | binds
41 | B2 | binds
42 | B3 | binds
43 | B4 | binds
44 | B5 | binds

Biological target: T3, Peptide 1 (CLDSGIGSLESQMSELWGVRGG), …
Experiment: as above

Row | Binder | binding result
45 | B4 | binds
46 | B5 | binds
